# In the Immune Epitope Database (IEDB):
# Tests used:
# HLA-B*51:01 = experiment: IEDB peptide-MHC binding, purified MHC/competitive/radioactivity; filed as Kd, often an IC50 or EC50 that approximates it; ≥ and ≤ were set here for values at or beyond the usual limits of such assays
# HLA-B*07:02 [1] = experiment: as above
# HLA-B*53:01 = experiment: as above; conditions: source organism: Dengue virus 2 Jamaica/1409/1983
# HLA-B*44:03 = experiment: as above; conditions: source organism: Dengue virus 1 Singapore/S275/1990
# HLA-B*40:01 [2] = experiment: as above; conditions: source organism: Dengue virus 1 Singapore/S275/1990
# HLA-B*08:01 [3] = experiment: as above
# HLA-A*01:01 [4] = experiment: as above; conditions: source organism: Mammarenavirus brazilense
# HLA-A*32:01 = experiment: as above
# HLA-A*29:02 = experiment: as above; conditions: source organism: Mammarenavirus brazilense
# HLA-A*26:01 [5] = experiment: as above; conditions: source organism: Mammarenavirus brazilense
# HLA-A*30:01 = experiment: as above; conditions: source organism: Mammarenavirus brazilense
# HLA-A*30:02 = experiment: as above; conditions: source organism: Mammarenavirus brazilense
# HLA-B*35:01 = experiment: as above; conditions: source organism: Dengue virus 1 Brazil/97-11/1997
# HLA-B*08:01 [6] = experiment: IEDB peptide-MHC binding, purified MHC/direct/fluorescence; filed as Kd, often an IC50 or EC50 that approximates it; ≥ and ≤ were set here for values at or beyond the usual limits of such assays; conditions: source organism: Coxiella burnetii
# HLA-B*40:01 [7] = experiment: as above; conditions: source organism: Coxiella burnetii
# HLA-A*69:01 = experiment: as above; conditions: source organism: Coxiella burnetii
# HLA-A*01:01 [8] = experiment: as above; conditions: source organism: Coxiella burnetii
# HLA-B*58:01 = experiment: as above; conditions: source organism: Coxiella burnetii
# HLA-B*44:02 = experiment: as above; conditions: source organism: Coxiella burnetii
# HLA-A*26:01 [9] = experiment: as above; conditions: source organism: Coxiella burnetii
# HLA-A*31:01 = experiment: as above; conditions: source organism: Coxiella burnetii
# HLA-B*07:02 [10] = experiment: as above; conditions: source organism: Coxiella burnetii
# HLA-A*02:01 = experiment: as above; conditions: source organism: Coxiella burnetii
# HLA-B*27:05 = experiment: as above; conditions: source organism: Coxiella burnetii
# HLA-B*15:01 = experiment: as above; conditions: source organism: Coxiella burnetii
# HLA-A*03:01 = experiment: as above; conditions: source organism: Coxiella burnetii
# HLA-A*11:01 = experiment: as above; conditions: source organism: Coxiella burnetii
# [11] = source organism: Dengue virus 2 Jamaica/1409/1983
# [12] = source organism: Dengue virus 1 Brazil/97-11/1997
sequence,measurement,setting,value
HPGFTIMAAI,Kd,HLA-B*51:01; [11],5.71 µM
same,Kd,HLA-B*07:02 [1]; [11],0.0295 µM
same,Kd,HLA-B*53:01,0.0665 µM
GEVDSFSLGL,Kd,HLA-B*44:03,0.158 µM
same,Kd,HLA-B*40:01 [2],0.00213 µM
CINVRRCAL,Kd,HLA-B*08:01 [3]; source organism: Vaccinia virus WR,0.00694 µM
LINERDYSRY,Kd,HLA-A*01:01 [4],1.03 µM
same,Kd,HLA-A*32:01; source organism: Mammarenavirus brazilense,≥ 69.9 µM
same,Kd,HLA-A*29:02,16.5 µM
same,Kd,HLA-A*26:01 [5],1.93 µM
same,Kd,HLA-A*30:01,≥ 70.4 µM
same,Kd,HLA-A*30:02,0.633 µM
MPIRYQTTAV,Kd,HLA-B*51:01; [12],0.347 µM
same,Kd,HLA-B*07:02 [1]; [12],0.0113 µM
same,Kd,HLA-B*35:01,0.048 µM
FRRLTSREVL,Kd,HLA-B*08:01 [3]; [12],0.104 µM
RSTSLSVSL,Kd,HLA-A*32:01; [11],0.1 µM
EEMPLVWDL,Kd,HLA-B*08:01 [6],≥ 20 µM
same,Kd,HLA-B*40:01 [7],0.0189 µM
same,Kd,HLA-A*69:01,≥ 20 µM
same,Kd,HLA-A*01:01 [8],≥ 20 µM
same,Kd,HLA-B*58:01,≥ 20 µM
same,Kd,HLA-B*44:02,9.33 µM
same,Kd,HLA-A*26:01 [9],≥ 20 µM
same,Kd,HLA-A*31:01,≥ 20 µM
same,Kd,HLA-B*07:02 [10],≥ 20 µM
same,Kd,HLA-A*02:01,≥ 20 µM
same,Kd,HLA-B*27:05,≥ 20 µM
same,Kd,HLA-B*15:01,≥ 20 µM
same,Kd,HLA-A*03:01,≥ 20 µM
same,Kd,HLA-A*11:01,≥ 20 µM
